{"source": "paper PMC3546842", "about": "“Using BAC transgenesis in zebrafish to identify regulatory sequences of the amyloid precursor protein gene in humans”", "binders": {"B1": {"name": "probe b (dsDNA)", "DNA 1": "GTAAGCTTTTATGTAAGTATTTTG", "DNA 2": "CAAAATACTTACATAAAAGCTTAC"}, "B2": {"name": "probe c (dsDNA)", "DNA 1": "ATTAAATTTTATGTAAAAATATGT", "DNA 2": "ACATATTTTTACATAAAATTTAAT"}, "B3": {"name": "probe a (dsDNA)", "DNA 1": "AATAAATGTTACATAATCCAAAGTC", "DNA 2": "GACTTTGGATTATGTAACATTTATT"}, "B4": {"name": "probe e (E4BP4 site E11) (dsDNA)", "DNA 1": "TGGTCAGTATTGTTATTACATAAGACATCAGCAAT", "DNA 2": "ATTGCTGATGTCTTATGTAATAACAATACTGACCA"}, "B5": {"name": "probe d (dsDNA)", "DNA 1": "ATTGGTTCATTATGTAACTTTCCCAT", "DNA 2": "ATGGGAAAGTTACATAATGAACCAAT"}}}
{"molecular_target": "T1, E4BP4-DBD (NFIL3 DNA-binding domain) (zebrafish, UniProt Q68EL6 18-164)", "T1 sequence": "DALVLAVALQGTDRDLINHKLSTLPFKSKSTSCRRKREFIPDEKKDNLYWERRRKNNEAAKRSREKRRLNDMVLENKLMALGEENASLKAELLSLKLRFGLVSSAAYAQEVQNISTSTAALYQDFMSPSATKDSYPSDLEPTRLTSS", "experiment": "EMSA; not given; EMSA performed as in an earlier cited paper (ref 25)", "settings": "protein: recombinant; tags: N-terminal His6; additional pET-30a(+) vector residues; chain copies: 2"}
{"binder": "B1", "binding result": "binds"}
{"binder": "B2", "binding result": "binds"}
{"binder": "B3", "binding result": "binds"}
{"binder": "B4", "binding result": "binds"}
{"binder": "B5", "binding result": "binds"}
